B1: miR-124 guide + 16-bp target (dsRNA)
RNA 1: UAAGGCACGCGGUGAAUGCCAA
RNA 2: GGGAACAACAACAACAACAACAACAACAACAAAAUUUUUUCACCGCGUGCCUUAAACAACAACAACAACA
modifications: guide 5' phosphate
B2: miR-196a guide + perfect target (dsRNA)
RNA 1: UAGGUAGUUUCAUGUUGUUGGG
RNA 2: GGGAACAACAACAACAACAACAACAACAACAACCCAACAACAUGAAACUACCUAAACAACAACAACAACA
modifications: guide 5' phosphate

Tests used:
AGO2 D669A [1] = biological target: T1, AGO2 D669A (UniProt Q9UKV8 1-859, D669A); test: hydroxyl-radical footprinting; elevated reactivity at 9-11; Footprinting: 18 mM HEPES pH 7.4, 100 mM KOAc, 1.2 mM Mg(OAc)2, 0.015 mg/mL BSA, 0.0015 mg/mL yeast tRNA, 0.01% IGEPAL, 8.75 mM DTT, 37 C; filter binding (titra); settings: protein: recombinant; tags: N-terminal 3xFLAG; label: 32P 5' end of guide; complementary up to guide position 16
T1 sequence (Q9UKV8 whole entry D669A): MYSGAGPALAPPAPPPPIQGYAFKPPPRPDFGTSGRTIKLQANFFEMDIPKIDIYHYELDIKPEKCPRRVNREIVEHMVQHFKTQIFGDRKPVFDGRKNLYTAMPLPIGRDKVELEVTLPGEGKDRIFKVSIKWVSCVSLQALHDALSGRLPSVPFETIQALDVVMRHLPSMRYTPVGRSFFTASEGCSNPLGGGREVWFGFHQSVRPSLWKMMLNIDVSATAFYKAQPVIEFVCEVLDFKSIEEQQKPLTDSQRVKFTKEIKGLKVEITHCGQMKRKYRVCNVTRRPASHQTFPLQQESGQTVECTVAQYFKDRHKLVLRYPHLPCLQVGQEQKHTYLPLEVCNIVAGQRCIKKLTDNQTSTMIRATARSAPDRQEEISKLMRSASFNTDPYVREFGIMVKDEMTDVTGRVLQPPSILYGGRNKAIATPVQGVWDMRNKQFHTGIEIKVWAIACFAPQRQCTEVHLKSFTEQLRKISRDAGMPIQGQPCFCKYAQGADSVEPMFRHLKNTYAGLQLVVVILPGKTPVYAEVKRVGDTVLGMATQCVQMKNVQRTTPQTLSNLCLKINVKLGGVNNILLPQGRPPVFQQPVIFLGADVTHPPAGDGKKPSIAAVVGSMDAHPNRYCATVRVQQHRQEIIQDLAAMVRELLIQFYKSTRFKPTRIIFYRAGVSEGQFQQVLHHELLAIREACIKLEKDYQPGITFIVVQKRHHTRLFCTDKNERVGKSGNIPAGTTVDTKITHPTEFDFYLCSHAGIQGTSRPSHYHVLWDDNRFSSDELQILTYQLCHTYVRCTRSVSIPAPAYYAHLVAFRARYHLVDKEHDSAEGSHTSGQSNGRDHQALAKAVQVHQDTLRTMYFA

AGO2 D669A [2] = biological target: T1, AGO2 D669A; test: hydroxyl-radical footprinting; peaks at 9-11; same at 1, 4 and 15 min; Footprinting: 18 mM HEPES pH 7.4, 100 mM KOAc, 1.2 mM Mg(OAc)2, 0.015 mg/mL BSA, 0.0015 mg/mL yeast tRNA, 0.01% IGEPAL, 8.75 mM DTT, 37 C; filter binding (titra); settings: protein: recombinant; tags: N-terminal 3xFLAG; label: 32P 5' end of guide; guide paired to internal site of longer target

Binder | binding result (AGO2 D669A [1]) | binding result (AGO2 D669A [2])
B1 | binds | –
B2 | – | binds
